Assay results reported in patent US12458618B2, “Compounds and methods for the detection of TRPV-6 cancers and drug delivery” (Soricimed Biopharma Inc., priority 2009, dated 2025).
Where no end group is shown, it is not given here. Cy5.5 maleimide = Cy5.5 label attached to cysteine thiol by maleimide-activated reaction

Key:
TRPV6 [1] = biological target: T1, TRPV6 (Homo sapiens, UniProt Q9H1D0); assay: Co-localization of SorC27-cy5.5 and fluorescently labeled TRPV6 antibodies in cancer cell lines; type: cell-based; design: endogenous in cells; host or cells: PC-3, T 47D, SKOV-3
T1 sequence (Q9H1D0 1-765): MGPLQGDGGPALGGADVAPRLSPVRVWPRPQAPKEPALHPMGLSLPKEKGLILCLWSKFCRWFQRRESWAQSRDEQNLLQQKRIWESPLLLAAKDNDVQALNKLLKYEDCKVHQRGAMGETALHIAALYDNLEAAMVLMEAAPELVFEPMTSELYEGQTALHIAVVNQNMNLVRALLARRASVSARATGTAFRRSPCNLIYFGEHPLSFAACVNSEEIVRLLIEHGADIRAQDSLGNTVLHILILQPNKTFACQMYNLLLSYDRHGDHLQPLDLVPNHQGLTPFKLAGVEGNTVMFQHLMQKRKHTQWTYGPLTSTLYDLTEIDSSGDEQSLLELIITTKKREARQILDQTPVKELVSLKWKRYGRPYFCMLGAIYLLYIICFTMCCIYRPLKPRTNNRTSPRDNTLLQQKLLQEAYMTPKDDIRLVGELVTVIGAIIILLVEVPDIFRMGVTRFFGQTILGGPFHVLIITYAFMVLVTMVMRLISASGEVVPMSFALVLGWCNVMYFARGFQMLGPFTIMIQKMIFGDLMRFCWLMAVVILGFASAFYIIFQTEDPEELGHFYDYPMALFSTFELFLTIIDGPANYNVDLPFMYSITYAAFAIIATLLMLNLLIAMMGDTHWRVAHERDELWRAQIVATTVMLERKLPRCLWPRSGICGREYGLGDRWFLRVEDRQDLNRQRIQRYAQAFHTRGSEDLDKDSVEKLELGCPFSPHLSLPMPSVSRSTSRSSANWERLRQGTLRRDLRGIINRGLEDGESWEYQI
Description: The level of TRPV6 immunofluorescence and SorC27-cy5.5 fluorescence are both increased in the transfected cells with increased TRPV6 expression shown in the B1-B3 series of FIG. 7 compared to the cells in the A1-A3 series of FIG. 7.
The level of TRPV6 immunofluorescence and SorC27-cy5.5 fluorescence are both increased in the transfected cells with greater TRPV6 expression shown in the B1-B3 series of FIG. 8 compared to the cells in the A1-A3 series of FIG. 8.
The level of TRPV6 immunofluorescence and SorC27-cy5.5 fluorescence are both increased the transfected cells with greater TRPV6 expression shown in the B1-B3 series of FIG. 9 compared to the cells in A1-A3 series of FIG. 9.

[2] = Tissue distribution of Cy5.5-labeled peptides after i.v. injection, optical imaging; type: in vivo, CD1 mice
Description: SorC13 and SorC27 were labeled with the near-infrared probe, Cy5.5. SorC13 was labeled at lysine-1 and lysine-8 with the infrared fluorescent probe cy5.5 through reaction with Cy5.5 NHS ester-activated process. SorC27 was labeled at the single cysteine thiol with Cy5.5 maleimide-activated reaction. The labeled peptides were purified with a combination of size exclusion chromatography and HPLC. The label, Cy5.5, fluoresces in the infra-red region after excitation with a scanning laser. The low energy laser is able to penetrate the animal to about 1 cm and, thus, by scanning prone and supine positions, the presence of the tagged peptides can be quantified in three dimensions.
Cy5.5-labeled peptides were intravenously injected into CD1 mice (4 for each compound) at 100 μg per animal in 100 μL, and animals were imaged live using an optical imaging system, Optix explorer (GE Healthcare Systems) at different time points (30 min, 90 min, 4 h). […] The bio-distribution of the labeled peptides in different organs and tissues were visualized and relatively quantified by optical imaging analysis. This protocol allows for visualization of the location of the labeled peptides and how the location changes over time. […] Nodes that accumulated the labeled peptides are indicated by line 1 (superfacial cervical nodes), line 4 (axillary nodes), line 5 (brachial nodes), line 8 (mesenteric nodes) and line 9 (inguinal nodes). FIGS. 2, 3 and 4 show the amounts of labeled peptides in various organs ex vivo.

[3] = system: TRPV6-rich ovarian (SKOV-3 cells) tumors; assay: Localization of SorC27-cy5.5 to xenografted ovarian tumors in vivo (optical imaging); design: species or system nude CD1 mice; settings: 100 μg intraperitoneally, SKOV-3 ovarian xenograft
Experimental: (§1) Mice xenografted with a TRPV6-rich ovarian (SKOV-3 cells) and prostate (DU145 cells) tumors were injected (intraperitoneally) with the fluorescently-labeled TRPV6-binding peptide SorC27-cy5.5. SorC27 was labeled with the near-infrared probe Cy5.5 at the single cysteine thiol using a Cy5.5 maleimide-activated reaction. The labeled peptides were purified with a combination of size exclusion chromatography and HPLC. Cy5.5, fluoresces in the infra-red region after excitation with a scanning laser. The low energy laser is able to penetrate the animal to about 1 cm and, thus, by scanning, the presence of the tagged peptides can be quantified in three dimensions. Cy5.5-labeled peptides were intraperitoneally injected into nude CD1 mice at 100 μg per animal, and animals were imaged live using an optical imaging system, Optix explorer (GE Healthcare Systems) at different time points (30 min, 90 min, 4 h).

TRPV6 [4] = biological target: T1, TRPV6; assay: Fluorescently tagged peptide on staged tumor tissue micro-arrays (Example 7); design: from tissue; host or cells: ovarian cancer tumour sections on tissue micro-arrays; settings: Stage I to Stage IV tissue micro-arrays
Experimental: Fluorescently tagged TRPV6-binding peptides are useful to determine the stage of a tumor by direct incubation of Tissue Micro-Arrays (TMA) with the peptide reagent. SorC27-cy5.5 compound is incubated with cells from a subject and fluorescence levels are compared to levels from control staged tumor samples.

TRPV6 [5] = biological target: T1, TRPV6; assay: Co-localization with TRPV6 antibody in HEK-293 cells transfected with a TRPV6 expression vector; type: cell-based
Experimental: HEK-293 cells were transfected with a TRPV6 expression vector and incubated with fluorescently labeled antibodies to the N-terminal peptides of TRPV6 as well as fluorescently labeled SorC27 (SorC27-cy5.5). HEK-293 cells that were not transfected with a TRPV6 expression vector were also incubated with fluorescently labeled anti-TRPV6 and SorC27-cy5.5 as a negative control (FIG. 6A).

[6] = system: prostate (DU145 cells) tumors; assay: Localization of SorC27-cy5.5 to xenografted prostate tumors in vivo (optical imaging); design: species or system nude CD1 mice; settings: 100 μg intraperitoneally, DU145 prostate xenograft
Experimental: as §1

[7] = system: ovarian TRPV6-rich tumor (SKOV-3 cells); assay: SorC27-cy5.5 in mice xenografted with SKOV-3 tumor (Example 9); type: in vivo; settings: SKOV-3 xenograft
Experimental: Mice xenografted with an ovarian TRPV6-rich tumor (SKOV-3 cells) are injected with the fluorescently-labeled TRPV6-binding peptide SorC27-cy5.5.

TRPV6 [8] = biological target: T1, TRPV6; assay: Equilibrium dissociation constant (Kd) in an LNCaP model; type: binding; design: endogenous in cells; host or cells: LNCaP
Description: As noted above, a TRPV6-binding peptide of the invention will have calcium channel binding activity. The peptides having such activity are readily identified with any known assays suitable for measuring binding of the peptides with TRPV6. For example, in one embodiment, a peptide having calcium channel inhibition activity is optionally identified by determining that the peptide reduces calcium channel activity by reducing (i.e., partially or fully inhibiting) the flow of calcium through calcium channels. TRPV6-binding activity can also be measured using methods such as: internalized calcifluors (such as FURA-2 am); whole cell patch clamping to measure inhibition calcium currents electrophysiologically; equilibrium binding assays using peptides labeled with detectable tags such as radioactive or fluorescent tags; and/or NMR determination of ‘bound’ and ‘unbound’ peptides. In some embodiments, the TRPV6-binding peptides also have i) calcium channel blocking and ii) lack of paralytic activity.
Calcium channel binding activity is optionally identified by using a readily available cell line (e.g. human embryonic kidney cell lines-HEK293) transfected with an expression vector for TRPV6. Such transfected cells are readily aliquoted and stored (typically −80° C.) until required. […]

Substance | SorC27-cy5.5 fluorescence in TRPV6-transfected versus non-transfected cells (TRPV6 [1]; PC-3) | SorC27-cy5.5 fluorescence in TRPV6-transfected versus non-transfected cells (TRPV6 [1]; SKOV-3) | SorC27-cy5.5 fluorescence in TRPV6-transfected versus non-transfected cells (TRPV6 [1]; T 47D) | co-localization with TRPV6 antibody (TRPV6 [1]; breast cancer cell line T 47D) | co-localization with TRPV6 antibody (TRPV6 [1]; ovarian cancer cell line SKOV-3) | co-localization with TRPV6 antibody (TRPV6 [1]; prostate cancer cell line PC-3) | predominant tissue localization ([2]; 100 μg i.v., CD1 mice, imaging up to 4 h) | detectability in tissues after perfusion ([2]; 24 hours, after perfusion to remove blood and lymph) | accumulation in lymph nodes (superfacial cervical, axillary, branchial, mesenteric, inguinal) ([2]; four hours after i.v. injection of 100 μg) | time tumor is clearly detected in vivo after injection [3] | fluorescent signal with tumor stage (TRPV6 [4]) | fluorescence in non-transfected cells (negative control) (TRPV6 [5]; HEK293 cells not transfected with the TRPV6 expression vector) | binding to TRPV6 (co-localization with anti-TRPV6) (TRPV6 [5]; HEK-293 cells transfected with TRPV6 expression vector) | time tumor is clearly detected in vivo after injection [6] | detection of xenografted tumor by fluorescence [7] | Kd (TRPV6 [8]) [nM]
SorC27-cy5.5: SorC27 labeled at the single cysteine thiol with Cy5.5 maleimide-activated reaction (EGKLSSNDTEGGLC(Cy5.5 maleimide)KEFLHPSKVDLPR) | increased | increased | increased | co-localization of SorC27-cy5.5 and TRPV6 | co-localization of SorC27-cy5.5 and TRPV6 | co-localization of SorC27-cy5.5 and TRPV6 | localize predominantly in lymph nodes, lung, liver and kidney | still detectable in these tissues | Significant accumulation | at least 24 hours | increase in the intensity of the fluorescent signal | no fluorescence | bound to TRPV6 | at least 24 hours | detected in vivo | –
HPSKVDLPR [SorC9, HPSKVDLPR] | – | – | – | – | – | – | – | – | – | – | – | – | – | – | – | ~90
